Drawing on patent US20240218054A1 (MABLOC, published 2024), this text covers Kd for 22 molecules.

The target of the assay is T1, recombinant YFV E protein (soluble E, sE; YFV Asibi strain) (Yellow fever virus, Asibi strain, UniProt Q6DV88 286-678).
T1 construct: also called YFV E antigen; YFV E monomer
Briefly: BLI monovalent (IgG on tip).

T1 sequence (Q6DV88 286-678): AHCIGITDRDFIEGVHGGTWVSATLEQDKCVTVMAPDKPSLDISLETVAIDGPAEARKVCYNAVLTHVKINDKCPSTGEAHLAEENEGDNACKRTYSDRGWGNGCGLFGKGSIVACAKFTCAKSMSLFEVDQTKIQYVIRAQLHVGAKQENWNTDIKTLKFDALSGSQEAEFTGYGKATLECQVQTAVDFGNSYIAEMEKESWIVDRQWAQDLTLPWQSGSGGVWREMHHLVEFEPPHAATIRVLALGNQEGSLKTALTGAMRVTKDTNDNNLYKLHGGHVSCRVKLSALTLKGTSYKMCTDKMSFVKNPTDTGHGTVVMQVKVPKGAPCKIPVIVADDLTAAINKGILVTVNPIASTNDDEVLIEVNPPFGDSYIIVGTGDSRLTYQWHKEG

B1: ADI-50219 (antibody, V domains shown)
VH: QVQLQESGPGLVKPSETLSLTCTVSGDSISVSYWSWIRQFPGKGLEWIGYIYNSGNANYNPSLESRVTISIDTSKNRFSLRLSSVTAADTAVYYCAGHREDPYGAYGASWGQGTLVTVSS
VL: EIVLTQSPATLSSSPGERATLSCRASQSVNSYLVWYQQKPGQAPRLLIYDASNRATGIPARFTGSGSGTDFTLTISSLEPEDFAVYYCQQRTNWPFTFGQGTKVDIK
notes: full-length IgG; also called Antibody Number 27
The Kd is the constant that tells how readily two partners part at equilibrium. Regarding B1, the Kd amounted to 0.859 nM.

B2: ADI-48897 (antibody, V domains shown)
VH: EVQLLESGPGLVKPSETLSLTCTVSGGSLSSDSHFWGWIRQPPGKGLEWIGYIYYSGNANYNPSLQSRVTISLDKSKNQFSLRLTSVTAADTAVYYCASRKEVRGTEDYFDYWGQGTLVTVSS
VL: EIVLTQSPATLSLSPGERATLSCRASQSVNRYLAWYQQKPGQAPRLLIYDASNRATGIPARFSGSGSGTDFTLTISSLEPEDFAVYYCHQRTNWPWTFGQGTKVEIK
notes: full-length IgG; also called Antibody Number 28
B2: the Kd was determined as 3.22 nM.

B3: ADI-42144 (antibody, V domains shown)
VH: QVQLVESGGGVVQPGRSLRLSCAASGFTFSSYTMHWVRQAPGKGLEWVAVISYDGSNKYYADSVKGRFTISRDNSKNTLYLQMNSLRAEDTAVYYCARGGDYGDYESNNPAEYFQHWGQGTLVTVSS
VL: QSVLTQPPSVSGAPGQRVTISCTGSSSNIGAGYDVHWYQQLPGTAPKLLIYGNSNRPSGVPDRFSGSKSGTSASLAITGLQAEDEADYYCQSYDSSLSGHVVFGGGTKLTVL
notes: full-length IgG; also called Antibody Number 26
Regarding B3, the Kd was found to be 10.9 nM.

B4: ADI-49154 (antibody, V domains shown)
VH: QVQLQESGPGLVKPSGTLSLTCAVSGSSITSSHWWSWVRQPPGKGLAWIGDIYHSGGTTYNPSLKSRVTISVDKSKNQFSLKLSSVTAADTAVYYCARVSVSTSAWYADYWGQGTLVTVSS
VL: QSVLTQPPSVSAAPGQKVTISCSGSSSNIGNNYVSWYQQLPGTAPKLLIYDNNKRPSGIPDRFSGSKSGTSATLGITGLQTGDEANYYCGTWDTSLSTVFGGGTKLTVL
notes: full-length IgG; also called Antibody Number 23
For the molecule B4, the Kd amounted to 141 nM.

B5: ADI-49183 (antibody, V domains shown)
VH: QVQLVESGGGLVKPGGSLRLSCVASGFTFNNYYMRWMRQAPGKGLEWVSQISSSGSIKDYADSVKGRFTVSRDNAKNSLYLQLNSLRADDTAVYFCARELSSRIDYWGQGTLVTVSS
VL: QSALTQPASVSGSPGQSITISCTGTGSDVGGYNFVSWYQQHPGKAPKLMLYDVNNRPSGVSNRFSGSKSGNTASLTISGLQAEDEADYYCSSYPGTSALVIFGGGTRLTVL
notes: full-length IgG; also called Antibody Number 24
As for B5, the dissociation constant (Kd) is 2.21 nM.

B6: ADI-50200 (antibody, V domains shown)
VH: EVQLLESGGDLVQPGRSLRLSCAASGFNLIDYAMHWVRQVPGKGLEWVSGISWNSRSIGYADSVKGRFTISRDNAKNSLYLQMDSLKHEDTALFYCAKGAAAGPFPYFYYAMDVWGQGTTVTVSS
VL: DIQVTQSPSSLSASVGDRVTITCRASQGISNNLAWYQQKPGIFPKLLIYAASTLQSGVPSRFSGSGSGTDFILTISSLQPEDVATYYCQKYQSAPPTFGGGTKLEIK
notes: full-length IgG
Regarding B6, the dissociation constant Kd is greater than 100 nM.

B7: ADI-45123 (antibody, V domains shown)
VH: EVQLLESGGGLVQPGGSLRLSCAASGFIFSNYWMSWVRQAPGKGLEWVANIKPDGSEKYYVESVRGRFTISRDNAKNSLYLQMNSLRAEDTAVFYCARDGGTVSDGLDVWGQGTTVTVSS
VL: DIRVTQSPSSLSASVGDRVTISCRASESISIYLNWYQQKPGKAPNLLIYAASSLQRGVPSRFSGSGSGTDFTLTITSLQAEDFATYYCQQTFSIWTFGQGTKVEIK
notes: full-length IgG
For B7, the Kd turned out to be 2.1 nM.

B8: ADI-42124 (antibody, V domains shown)
VH: EVQLLESGGGLVQPGGSLRLSCAASGFTFSSYAMSWVRQAPGKGLELVSAISSSGGSTYYADSVKGRFTISRDNSKNTLYLQMNSLRAEDTALYYCAKDLFYDFWTGITIDYWGQGTLVTVSS
VL: QPVLTQPRSVSGSPGQSVTISCTGTSSDVGGYNYVSWYQQHPGKAPKLMIYDVSKRPSGVPDRFSGSKSGNTASLTISGLQAEDEADYYCCSYAGSYTFVLFGGGTKLTVL
notes: full-length IgG
Regarding B8, the Kd was found to be 5.88 nM.

B9: ADI-49205 (antibody, V domains shown)
VH: EVQLVESGGGVVQTGRSLRLSCAASGFTFSISGMHWVRQAPGKGLEWVALIWYDGTKKYYADSVKGRFTISRDDFKNTVYLQMNSLRADDTAVYYCARIKSDAFDLWGQGTTVTVSS
VL: QSALTQPPSASGSPGQSVTISCTGTSSDVGGFNYVSWYQQHPGRAPKLVIYEVNRRPSGVPDRFSGSKSGYTASLTVSGLQAEDEADYYCFSYAGSNNYVFGTGTKVTVL
notes: full-length IgG; also called Antibody Number 148
As to B9, the Kd is 12.9 nM.

B10: ADI-42190 (antibody, V domains shown)
VH: QVQLVESGGGLVKPGGSLRLSCAASGFTFSDDYMSWIRQAPGKGLEWVSYISGSGRAMYYADSVQGRFTVSRDNAKNSLFLQMNNLRAEDTAVYYCAKHTGDKPLVWAPSVYGLDVWGQGTTVTVSS
VL: QSVLTQPASVSGSPGQSITISCTGTSSDIGAYNYVSWYQQHPGKAPKLMIYDVTNRPSGVSNRFSGSKSGSSASLTISGLQTEDEADYYCSSYTRRSTLVFGGGTKLTVL
notes: full-length IgG; also called Antibody Number 22
As to B10, the Kd amounted to 13.1 nM.

B11: ADI-45151 (antibody, V domains shown)
VH: EVQLLESGGGVVQPGKSLRLSCAASGFSFGDYGMHWVRQTPDKGLEWVAVILFDGSKKFYADSVRGRFTISRDNSKNNLYLQMSSLRPEDTAVYYCAKFPLRDGGSGEGFDYWGQGTLVTVSS
VL: DIVMTQTPLSSPVTLGQPASISCRSSQSLVHSDGNTYLSWLQQRPGQPPRFLIYKISNRFSGVPDRFSGGGAGTDFTLKISRVEAEDVGVYYCMQASQFPLTFGGGTKVEIK
notes: full-length IgG; also called Antibody Number 149
In the case of B11, the Kd was greater than 100 nM.

B12: ADI-49194 (antibody, V domains shown)
VH: EVQLVESGGAVVQPGRSLRLSCAASGFTFSSYGMHWVRQAPGKGLESVAVIWYDGSNKNYADSVKGRFTISRDNSKNTLFLQMNSLRAEDSAMYYCAKTYDSRAYYYLDYWGQGTLVTVSS
VL: ETTLTQSPSTLSTSVGDRVTITCRASQSISSWLAWYQQKPGKAPKLLIYRASSLETEVPSRFSGSGSGTDFTLTISRLQPDDFATYFCQQYNRYPYTFGQGTKLEIK
notes: full-length IgG
Regarding B12, the Kd was found to be 234 nM.

B13: ADI-50533 (antibody, V domains shown)
VH: QVQLQESGPGLVKPSGTLSLTCAVSGGSISSSNWWSWVRQPPGKGLEWIGEIYHSGSTNYNPSLKSRVTISVDKSKNQFSLKLSSVTAADTAVYYCARVVWYSSSSHLFDYWGQGTLVTVSS
VL: QPVLTQPPSVSAAPGQKVTISCSGSSSNIGNNYVSWYQQLPGTAPKLLIYDNNKRPSGIPDRFSGSKSGTSATLGITGLQTGDEADYYCGTWDSSLSAGKVFGGGTKLTVL
notes: full-length IgG; also called Antibody Number 147
Take B13: the Kd is greater than 100 nM.

B14: ADI-42198 (antibody, V domains shown)
VH: EVQLVESGPGLVKPSGTLSLTCAVSGGSISSNKWWSWVRQPPGKGLEWIGEIYHSGSTSYNPSLKSRVSISVDKSKNQFSLKLSSVTAADTAVYYCARVEWAYSSSWWLDYWGQGTLVTVSS
VL: QSVLTQPPSVSAAPGQKVTISCSGSSSNIGNNYVSWYQQLPGTAPKLLIYDNNKRPSGIPDRFSGSKSGTSATLGITGLQTGDEADYICGTWDTSLSAGGVFGGGTKLTVL
notes: full-length IgG; also called Antibody Number 21
On to B14, for which the Kd was determined as 33.2 nM.

B15: ADI-42210 (antibody, V domains shown)
VH: EVQLLESGPGLVQPSGTLSLTCTASGGSISSSNWWSWVRQPPGKGLEWIGDIYHTGSTSYNPSLKSRVTISVDKSKNQFSLKLSSVTAADTAVYYCARAELSAWYYFDHWGQGTLVTVSS
VL: QSVLTQPPSVSAAPGQKVTISCSGSSSNIGNNYVSWYQQLPGTAPKLLIYDNNKRPSGIPDRFSGSKSGTSATLGITGLQTGDEADYYCGTWDTSLSAGRVFGGGTKLTVL
notes: full-length IgG; also called Antibody Number 16
For the molecule B15, the Kd was determined as 18.7 nM.

B16: ADI-48895 (antibody, V domains shown)
VH: EVQLLESGGGLVKPGGSLRLSCAASGFTFSDYYMSWIRQAPGKGLEWVSYITSSGNTKYYADSVKGRFTISRDNAKNSLYLQISSLRAEDTAVYYCARDWAELTTITNYFYPWGQGTTVTVSS
VL: DIQLTQSPSSVSASVGDRVTITCRASQGISSWLAWYQQKPGKAPKLLIHAASSLQSGVPSRFSGSGSGTDFTLTISSLQPEDFATYYCQQAKSFPPTFGQGTRLEIK
notes: full-length IgG; also called Antibody Number 18
Regarding B16, the dissociation constant (Kd) came to 4.49 nM.

B17: ADI-49030 (antibody, V domains shown)
VH: QVQLVQSGGGLVQPGGSLRLSCAASGFTFSDHYMDWVRQAPGKGLEWVGRTRNKANSYTTEYAASVKGRFTISRDDSKNSLYLQMNSLKTEDTAVYYCAGVGITGTTGIDYWGQGTLVTVSS
VL: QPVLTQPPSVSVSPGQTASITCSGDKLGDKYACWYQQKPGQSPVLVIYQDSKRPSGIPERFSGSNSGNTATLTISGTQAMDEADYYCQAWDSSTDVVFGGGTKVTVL
notes: full-length IgG; also called Antibody Number 151
Consider B17, for which the Kd amounted to 125 nM.

B18: ADI-50201 (antibody, V domains shown)
VH: QVQLVESGGGLVKPGGSLRLSCAASGFIFSDYYMNWIRQAPGKGLDWVSTISGSGKSIYYADSVKGRFTISRDNAKNSLYLQMNSLSAEDTAVYYCARVSPLDDGYGYTYYGMDVWGQGTTVTVSS
VL: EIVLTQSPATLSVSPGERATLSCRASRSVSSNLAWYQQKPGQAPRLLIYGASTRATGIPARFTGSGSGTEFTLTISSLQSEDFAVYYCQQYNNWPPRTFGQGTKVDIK
notes: full-length IgG; also called Antibody Number 17
Consider B18, for which the Kd was found to be 13.1 nM.

B19: ADI-42228 (antibody, V domains shown)
VH: EVQLLESGGGLVQPGRSLRLSCAASGFTFDDYAMHWVRQPPGKGLEWVSGISWNGGGIGYADSVKGRFTISRDNAKNSLYLQMNSLRADDTALYYCAKAENRIGYCSAGSCYLTYFDYWGQGTLVTVSS
VL: QPVLTQPASVSGSPGQSITISCTGTSSDVGGYNYVSWYQQHPGKAPKLLIYDVSNRPSGVSNRFSGSKSANSASLTISGLQAEDEADYYCNSYTSSSTLVFGGGTKLTVL
notes: full-length IgG; also called Antibody Number 19
For the molecule B19, the Kd came out at 8.64 nM.

B20: ADI-42201 (antibody, V domains shown)
VH: EVQLVESGGGVVQPGRSLRLSCVASGFTLRSYGMHWVRQVPGKGLEWVAVSWYDGSNKHYADSVKGRFSISRDNSKNTLYLQMNSLRAEDTAVYYCARAQDGQQLVNYYGMDVWGQGTTVTVSS
VL: DIQMTQSPSSLSASVGDRVTITCRASQSISSYLNWYQQKPGEAPNLLIFAASILQSGVPSRFSGSGSGTDFTLTISSLQPEDFATYYCQQSYSTPYTFGQGTKVEIK
notes: full-length IgG; also called Antibody Number 25
Consider B20, for which the equilibrium dissociation constant (Kd) came out at 113 nM.

B21: ADI-42114 (antibody, V domains shown)
VH: EVQLLESGGGLVKPGGSLRLSCAASGFTFSSYSMNWVRQAPGKGLEWVSSISSSSSYIYYADSVKGRFTISRDNAKNSLYLQMNSLRAEDTAVYYCARDSWGPFDYWGQGTLVTVSS
VL: QSVLTQPPSVSAAPGQKVTISCSGSSSNIGNNYVSWYQQLPGTAPKLLIYDNNKRPSGIPDRFSGSKSGTSATLGITGLQTGDEADYYCGTWDSSLSAKVFGGGTKLTVL
notes: full-length IgG; also called Antibody Number 143
Regarding B21, the Kd was greater than 100 nM.

B22: ADI-42786 (antibody, V domains shown)
VH: EVQLVESGPGLVKPSGTLSLTCAVSGGSISSSYWWSWVRQSPGKGLEWIGEVYHSGSTHYNPSLKSRVTISVDKSKNQFSLKLTSVTAADTAVYYCARDGEGHYYRSGDNWFDRWGQGTLVTVSS
VL: QSVLTQPPSVSAAPGQKVTISCSGSSSNIGSNYVSWYQQFPGTAPKLLIYDNSKRPSGIPDRFSGSMSGTSATLGITGLQTGDEADYYCGTWDSSLSAVVFGGGTKVTVL
notes: full-length IgG; also called Antibody Number 15
B22: the Kd came to 12.7 nM.
